The target in the assay is recombinant full-length calcium-independent receptor of α-latrotoxin (CIRL) expressed in COS cells (rat).
Chain of recombinant full-length calcium-independent receptor of α-latrotoxin (CIRL) expressed in COS cells (rat) (O88917 other isoform, or with tags, fused parts or gaps limits assumed): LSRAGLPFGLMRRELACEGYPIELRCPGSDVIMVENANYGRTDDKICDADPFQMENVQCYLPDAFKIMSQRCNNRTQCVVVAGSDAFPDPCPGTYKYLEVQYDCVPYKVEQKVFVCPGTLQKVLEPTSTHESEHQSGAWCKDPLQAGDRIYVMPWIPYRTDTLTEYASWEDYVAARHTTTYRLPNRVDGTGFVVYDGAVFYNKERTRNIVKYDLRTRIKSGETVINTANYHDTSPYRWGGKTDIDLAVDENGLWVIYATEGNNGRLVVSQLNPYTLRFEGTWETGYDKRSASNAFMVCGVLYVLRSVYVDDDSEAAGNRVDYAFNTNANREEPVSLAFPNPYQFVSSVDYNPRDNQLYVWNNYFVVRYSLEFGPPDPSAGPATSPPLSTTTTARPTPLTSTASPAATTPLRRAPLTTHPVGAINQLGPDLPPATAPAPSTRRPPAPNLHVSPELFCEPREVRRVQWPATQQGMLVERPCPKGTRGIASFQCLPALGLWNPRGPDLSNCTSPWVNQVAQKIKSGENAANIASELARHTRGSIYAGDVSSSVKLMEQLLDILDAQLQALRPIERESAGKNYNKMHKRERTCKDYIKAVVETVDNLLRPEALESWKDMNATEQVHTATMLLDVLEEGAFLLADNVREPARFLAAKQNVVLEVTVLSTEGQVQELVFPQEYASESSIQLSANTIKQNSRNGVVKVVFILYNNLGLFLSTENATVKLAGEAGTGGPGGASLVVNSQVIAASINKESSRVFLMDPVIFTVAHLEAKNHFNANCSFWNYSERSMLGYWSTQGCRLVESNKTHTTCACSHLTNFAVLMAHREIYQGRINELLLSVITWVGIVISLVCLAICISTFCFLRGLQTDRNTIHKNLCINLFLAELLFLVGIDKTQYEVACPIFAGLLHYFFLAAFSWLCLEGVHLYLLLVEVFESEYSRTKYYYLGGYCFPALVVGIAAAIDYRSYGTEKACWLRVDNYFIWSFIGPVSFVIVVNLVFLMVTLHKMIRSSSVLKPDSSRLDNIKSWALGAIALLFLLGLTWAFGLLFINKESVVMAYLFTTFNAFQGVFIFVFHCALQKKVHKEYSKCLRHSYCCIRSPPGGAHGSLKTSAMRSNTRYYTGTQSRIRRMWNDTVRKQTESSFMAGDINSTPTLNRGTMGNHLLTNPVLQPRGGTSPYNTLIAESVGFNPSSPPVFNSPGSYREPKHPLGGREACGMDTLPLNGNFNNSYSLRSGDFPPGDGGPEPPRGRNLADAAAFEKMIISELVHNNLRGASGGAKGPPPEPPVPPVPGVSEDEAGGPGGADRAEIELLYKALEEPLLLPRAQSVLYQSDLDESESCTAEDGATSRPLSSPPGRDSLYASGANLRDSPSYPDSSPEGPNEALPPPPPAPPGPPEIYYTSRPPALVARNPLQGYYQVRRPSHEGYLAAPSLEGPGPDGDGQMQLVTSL

B1: α-latrotoxin (ligand)
chain: EGEDLTLEEKAEICSELELQQKYVDIASNIIGDLSSLPIAGKIAGTIAAAAMTATHVASGRLDIEQTLLGCSDLPFDQIKEVLENRFNEIDRKLDSHSAALEEITKLVEKSISVVEKTRKQMNKRFDEVMKSIQDAKVSPIISKINNFARYFDTEKERIRGLKLNDYILKLEEPNGILLHFKESRTPTDDSLQAPLFSIIEEGYAVPKSIDDELAFKVLYALLYGTQTYVSVMFFLLEQYSFLANHYYEKGYLEKYDEYFNSLNNVFLDFKSSLVGTGTSNNEGLLDRVLQVLMTVKNSEFLGLEKNGVDEMLNEKINLFNKIKEEIEGKQKMTLSETPENFAQISFDKDITTPIGDWRDGREVRYAVQYASETLFSKISHWSDPVSVREKACPTLRMPVDQTRRNVLVFRKFDSSKPQLVGEITPYLSNFIDIDRDLYNAASNPDSAVGFKEFTKLNYDGANIRATFDHGRTVFHAAAKSGNDKIMFGLTFLAKSTELNQPDKKGYTPIHVAADSGNAGIVNLLIQRGVSINSKTYHFLQTPLHLAAQRGFVTTFQRLMESPEININERDKDGFTPLHYAIRGGERILEAFLNQISIDVNAKSNTGLTPFHLAIIKNDWPVASTLLGSKKVDINAVDENNITALHYAAILGYLETTKQLINLKEINANVVSSPGLLSALHYAILYKHDDVASFLMRSSNVNVNLKALGGITPLHLAVIQGRKQILSLMFDIGVNIEQKTDEKYTPLHLAAMSKYPELIQILLDQGSNFEAKTNSGATPLHLATFKGKSQAALILLNNEVNWRDTDENGQMPIHGAAMTGLLDVAQAIISIDATVVDIEDKNSDTPLNLAAQNSHIDVIKYFIDQGADINTRNKKGLAPLLAFSKKGNLDMVKYLFDKNANVYIADNDGMNFFYYAVQNGHLNIVKYAMSEKDKFEWSNTDNNRRDECPNEECAISHFAVCDAVQFDRIEIVKYFVGTLGNFAICGPLHQAARYGHLDIVKYLVEEEFLSVDGSKTDTPLCYASENGHFTVVQYLVSNGAKVNHDCGNGMTAIDKAITKNHLQVVQFLAANGVDFRRKNSRGTTPFLTAVAENALHIAEYLIREKRQDININEQNVDKDTALHLAVYYKNLQMIKLLIKYGIDVTIRNAYDKTALDIAIDAKFSNIVEYLKTKSGKFRR
modifications: radioactively labeled with 125I by chloramine T procedure in the binding and immunoprecipitation assays; coupled to Sepharose in the affinity experiments
On to B1, for which the equilibrium dissociation constant (Kd) was determined as 0.16 nM.

The term Kd denotes the equilibrium constant for the complex coming apart.

(Values after patent publication US6630345B2 (New York University, dated 2003).)
